Assay results as given in patent USRE50178 (CELLTECH R AND D, dated 2024).

Molecular target: T1, CD3 antigen (human, UniProt P07766 23-207)
T1 construct: whole, on cells; also called OKT3 antigen; antigen in the T-cell receptor-CD3 complex
Test: competition with Fl-OKT3 on HPB-ALL cells, flow cytometry

B1: OKT3 gL221 / gH341 (JA178), basic grafted product (antibody, human IgG4, V domains shown)
VH: QVQLVESGGGVVQPGRSLRLSCSSSGYTFTRYTMHWVRQAPGKGLEWVAYINPSRGYTNYNQKFKDRFTISRDNSKNTLFLQMDSLRPEDTGVYFCARYYDDHYCLDYWGQGTTLTVSS
VL: DIQMTQSPSSLSASVGDRVTITCSASSSVSYMNWYQQTPGKAPKLLIYDTSKLASGVPSRFSGSGSGTDYTFTISSLQPEDIATYYCQQWSSNPFTFGQGTKLQITR
notes: Human IgG4 and human kappa constant regions; also called minimally grafted OKT3 antibody
binding result: no binding
